{
  "source": "patent US20150065444",
  "molecular_target": "Purified 6x His-tagged PCNA, P12004",
  "sequence (P12004 whole entry)": "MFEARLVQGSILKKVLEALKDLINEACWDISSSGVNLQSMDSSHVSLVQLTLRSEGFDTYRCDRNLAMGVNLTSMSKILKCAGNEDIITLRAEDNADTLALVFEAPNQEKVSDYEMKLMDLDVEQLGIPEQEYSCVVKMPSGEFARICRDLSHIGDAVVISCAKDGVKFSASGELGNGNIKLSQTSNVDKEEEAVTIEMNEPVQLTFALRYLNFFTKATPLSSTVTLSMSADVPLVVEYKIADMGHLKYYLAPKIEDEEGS",
  "data": [
    {"protein": "Purified recombinant 6x His-tagged Arm1 (protein) MAVVPASLSGQDVGSFAYLTIKDRIPQILTKVIDTLHRHKSEFFEKHGEEGVEAEKKAISLLSKLRNELQTDKPFIPLVEKFVDTDIWNQYLEYQQSLLNESDGKSRWFYSPWLLVECYMYRRIHEAIIQSPPIDYFDVFKESKEQNFYGSQESIIALCTHLQQLIRTIEDLDENQLKDEFFKLLQISLWGNKCDLSLSGGESSSQNTNVLNSLEDLKPFILLNDMEHLWSLLSNCKKTREKASATRVYIVLDNSGFELVTDLILADFLLSSELATEVHFYGKTIPWFVSDTTIHDFNWLIEQVKHSNHKWMSKCGADWEEYIKMGKWVYHNHIFWTLPHEYCAMPQVAPDLYAELQKAHLILFKGDLNYRKLTGDRKWEFSVPFHQALNGFHPAPLCTIRTLKAEIQVGLQPGQGEQLLASEPSWWTTGKYGIFQYDGPL", "values": [
      {"measurement": "PCNA-dependent carboxyl methyltransferase activity (vapour diffusion assay)", "value": "Arm possesses a PCNA-dependent carboxyl methyltransferase activity"}
    ]}
  ]
}
